In the DeepSol protein solubility set:

Experiment: soluble on expression in E. coli; label from the status in PepcDB or PDB records

Row | Sequence | soluble on expression in E. coli
1 | MEATLPVLDAKTAALKRRSIRRYRKDPVPEGLLREILEAALRAPSAWNLQPWRIVVVRDPATKRALREAAFGQAHVEEAPVVLVLYADLEDALAHLDEVIHPGVQGERREAQKQAIQRAFAAMGQEARKAWASGQSYILLGYLLLLLEAYGLGSVPMLGFDPERVRAILGLPSRAAIPALVALGYPAEEGYPSHRLPLERVVLWR | soluble
2 | MDISIEFGLYPTESDLTELQQYFPDTNLKKLYEVEAYHKKLETILDSEFSTERESLIAEIDELESQLTTLNQELQELGNIPNLSSEYLENYSKLTATINALKEQNEAYLKESGLSKEKSETDADLKRSTEDILLDLEVKINSKMREVNNILYPDIRKAPQINLNAHNSYSFYTPDDDGTGTKFKGMIVFDLVMLYLTNLPALAHDSLLLSNVSYQATEALLKLYDQSRSLNKQVFLVFDKASSYSPDANQLLSENTVLRLSSNGNELYGISWNKGENSDEI | not soluble
3 | SQYSAQRDLRMSPGDTVELGGYHFLFDGAKHHEGPNYTSDKGSIHVSRDGKEIATLHPEKRLYTVQSSMMTEAGIDAGFTRDLYVALGEPLENGAWAVRVHVKPFVR | not soluble
4 | MGHHHHHHSHQQENGSMFSLITWNIDGLDLNNLSERARGVCSYLALYSPDVIFLQEVIPPYYSYLKKRSSNYEIITGHEEGYFTAIMLKKSRVKLKSQEIIPFPSTKMMRNLLCVHVNVSGNELCLMTSHLESTRGHAAERMNQLKMVLKKMQEAPESATVIFAGDTNLRDREVTRCGGLPNNIVDVWEFLGKPKHCQYTWDTQMNSNLGITAACKLRFDRIFFRAAAEEGHIIPRSLDLLGLEKLDCGRFPSDHWGLLCNLDIIL | not soluble
5 | RDIAQRITGATLRAPPCHEEVREAIRDAVGRTLVSNRKVGVAVSGGLDSTILCSELDSLGITDLDLISIQALGSQDGITDLSALELKGEAWKSWRLTASRFDPATYWRDLRRAIAILGEPTQMTSAPLYLGLAEKAAEAGVVVLLLGEGADELFCGYRSYLPMLSGWSLRDFLFRPLERAVCQRLFSGEIQARCAAALDVFTRALPEGDQWTQLRAAEMSHNLEPLLLRADHTLMRCSIEGRTPFLHGDVADLAFSLPIDSLLSPNQTKVFLRQAYFRDLPAHFSTEIKKPFRAPVATWFVGPLKAWLTEEFSRQEAVFACLGIEPGGLEHVLTKTAQGHARMAKVAFCLLTLGFWIDWL | not soluble
6 | MIRKLDKAEFQQATTLALEVYLQCGQDDFEDEGLESFKSFIFNDKLMNELCIYGAFEENKLIGIMGTKNEGKHISLFFIKKEFHRKGIGKQLFDYSQCDCPANEITVNSSTYAIRFYESLGFEKTNDRQQTNGISYTPMKLISNKLEHHHHHH | soluble
7 | SENDSIELDDVANLMFYGEGQIGTNKQPFMFIFDTGSANLWVPSVNCDSIGCSTKHLYDASASKSYEKDGTKVEISYGSGTVRGYFSKDVISLGDLSLPYKFIEVTDADDLEPIYSGSEFDGILGLGWKDLSIGSIDPVVVELKKQNKIDNALFTFYLPVHDKHVGYLTIGGIESDFYEGPLTYEKLNHDLYWQIDLDIHFGKYVMQKANAVVDSGTSTITAPTSFLNKFFRDMNVIKVPFLPLYVTTCDNDDLPTLEFHSRNNKYTLEPEFYMDPLSDIDPALCMLYILPVDIDDNTFILGDPFMRKYFTVFDYEKESVGFAVAKNL | soluble
8 | MKIINLQFPNKYSAKKKEFVLAMGYFDGLHLGHRAVIQQAKRIADKQHLKLALLTYSQSPAGFYVNDPVLKVPILPFRQKMQMLEKLGVDTIFLIDYNLTFGSQSPEDYVDNYLAKLGASVVVAGFDHTYGSLKDKADMKHLPRYANGRFEVYTVRECSDYFGKISSTRIRRLLSEGDLQAVNELLGYQFQTVGFVVHGNQIGRRIGFPTANQALEEKQLLPKSGVYAVRTKIVTGPLAGRSFNGMASIGRNETFGSDNPITIEINLFDFSADVYDEEIIVYWISFLREQVKYANAEALIDQLKQDRIDSLDLLKEIPKSKNYS | not soluble
9 | MGSDKIHHHHHHMISASTLNSELINKIAQDFAQATSLAVVVVNIHGDEISELFNFTPFCQLMRQHPEHSGRCRMSDRCGGLEASKKDQLCIYRCHAGLTDFSIPLVIAGHLVGFVLCGQVRLSNDVELVDILNVDDRWQDDPALVQAFRDVPEMDYSRVIASADLLKLIVENCLKKQLNFVVIKDNPSQNDPAQASRAPSPHDGKMKKALRYIDAHLSDELRLEDVAAHVYLSPYYFSKLFKKYQGIGFNAWVNQQRMASAKELLCHSDWSIASIARNLGFSQTSYFCKVFRQTYQVTPQAFRQQINAGSQTESF | not soluble
10 | MVEMTRIKHVAFLNPQGNFDPADSYWTEHPDFGGQLVYVKEVSLALAEMGVQVDIITRRIKDENWPEFSGEIDYYQETNKVRIVRIPFGGDKFLPKEELWPYLHEYVNKIINFYREEGKFPQVVTTHYGDGGLAGVLLKNIKGLPFTFTGHSLGAQKMEKLNVNTSNFKEMDERFKFHRRIIAERLTMSYADKIIVSTSQERFGQYSHDLYRGAVNVEDDDKFSVIPPGVNTRVFDGEYGDKIKAKITKYLERDLGSERMELPAIIASSRLDQKKNHYGLVEAYVQNKELQDKANLVLTLRGIENPFEDYSRAGQEEKEILGKIIELIDNNDCRGKVSMFPLNSQQELAGCYAYLASKGSVFALTSFYEPFGLAPVEAMASGLPAVVTRNGGPAEILDGGKYGVLVDPEDPEDIARGLLKAFESEETWSAYQEKGKQRVEERYTWQETARGYLEVIQEIADRKDEEDEGGSLNIPDYFTNPGASNDEKLLDTFNKLWKE | soluble
11 | MSLTEKKCTVMLSKFKRNKHQQHLAQLPKISQSVDDVDFFYAPADFRETLLEKIASAKQRICIVALYLEQDDGGKGILNALYEAKRQRPELDVRVLVDWHRAQRGRIGAAASNTNADWYCRMAQENPGVDVPVYGVPINTREALGVLHFKGFIIDDSVLYSGASLNDVYLHQHDKYRYDRYHLIRNRKMSDIMFEWVTQNIMNGRGVNRLDDVNRPKSPEIKNDIRLFRQELRDAAYHFQGDADNDQLSVTPLVGLGKSSLLNKTIFHLMPCAEQKLTICTPYFNLPAILVRNIIQLLREGKKVEIIVGDKTANDFYIPEDEPFKIIGALPYLYEINLRRFLSRLQYYVNTDQLVVRLWKDDDNTYHLKGMWVDDKWMLITGNNLNPRAWRLDLENAILIHDPQLELAPQREKELELIREHTTIVKHYRDLQSIADYPVKVRKLIRRLRRIRIDRLISRILEGHHHHHH | not soluble
12 | MAAPDIKTIVNGINIKQSFAIQNQIRDGGDGELAKPRYQATVVWDSGYHTTSNVTDGQIIIGDEPVHYGGEGMGITPQDLLLTAVGHCLAASYIGGLSAAHINVESLHVHVSGRVNFRAAFAVEPGNPGFEDISVIVEIQTDAPQEQVTALLEKLKHMAPIPDTIMRPVPVNIEIRHQLK | not soluble
13 | MSLMSSDQQGKCPVDEETKKLWLREHGNEAHPGATAPGNQLECSANPQDNDKTPEYHTTVDLSQSREVSTIPRTNSDRNWIYPSEKQFYEAMMKKNWDPNSDDMKVVVPLHNSINERVWNYIKSWEDKQGGEACGGIKLTNFKGDSKKLTPRAWFRSRILHLAKPFDRHDWQIDRCGKTVDYVIDFYSTDLNDANSQQQPLIYLDVRPKLNSFEGFRLRFWKSLGFEGHHHHHH | soluble
14 | MQKDALNNVRITDEQVLMTPEQLKAAFPLSLAQEAQIAQSRGIISDIIAGRDPRLLVVCGPCSIHDPETALEYARRFKALAAEVSDSLYLVMRVYFEKPRTTVGWKGLINDPHMDGSFDVEAGLKIARQLLVELVNMGLPLATEALDPNSPQYLGDLFSWSAIGARTTESQTHREMASGLSMPVGFKNGTDGSLATAINAMRAAAQPHRFVGINQAGQVALLQTQGNPHGHVILRGGKAPNYSPADVAQCEKEMEQAGLRPSLMVDCSHGNSNKDYRRQPAVAESVVAQIKDGNRSIIGLMIESNIHEGNQSSEQPRSEMKYGVSVTDACISWEMTDALLREIHKDLSGQLAVRVA | not soluble
15 | GSHMNIITVTLNMEKYNFLGISIVGQSNERGDGGIYIGSIMKGGAVAADGRIEPGDMLLQVNDMNFENMSNDDAVRVLRDIVHKPGPIVLTVAKSGGGGEIVLWSDIP | soluble
16 | MGSDKIHHHHHHMTTKPERVVLIGVAGDSGCGKSTFLRRLIDLFGEEFMTVICLDDYHSLDRKQRKETGITALDPRANNFDLMYEQIKALKEGQTINKPIYNHETGLIDPPEIVKPNHIVVVEGLHPLYDERVRSLLDFSVYFDISDEVKIAWKIQRDMAERGHRYEDVLAAINSRKPDFQKYIEPQREFADVVLQVLPTNLIKDDTDRKVLRVRMLQREGKEGFEPAYLFDEGSTINWTPCGRKLTCSYPGMQLYYGSDVYYGRYVSVLEVDGQFDNLEEVIYIETHLSNTSTKYQGELTQLLLQHREYPGSNNGTGFFQVLTGLKMRAAYERLTAKEAKLAVQV | not soluble
17 | GSMSTKNFRVSDGDWICPDKKCGNVNFARRTSCDRCGREKTTGPI | soluble
18 | GMTSTSITAVEYQSKRLESRLLKETREYVIALPEGYAQSLEAYPVVYLLDGEDQFDHMASLLQFLSQGTMPQIPKVIIVGIHNTNRMRDYTPTHTLVLPSGNKGNPQYQHTGGAGRFLDFIEKELAPSIESQLRTNGINVLVGHSFGGLVAMEALRTDRPLFSAYLALDTSLWFDSPHYLTLLEERVVKGDFKQKQLFMAIANNPLSPGFGVSSYHKDLNLAFADKLTKLAPKGLGFMAKYYPEETHQSVSHIGLYDGIRHLFKDFAIDIYSDSFSKQQVIDQYGVLSERFGHKVTPSQQYLEQLIQYSDRQQLTERKQMLEGLRQHFAKD | soluble
19 | KQAQVDYLALPGDAKLDTRSVDYKCENGRKFTVQYLNKGDNSLAVVPVSDNSTLVFSNVISASGAKYAAGQYIWWTKGEEATLYGDWKGGEPTDGVACKER | soluble
20 | MGSDKIHHHHHHMMQSAAINRRSFVKAAGLGFLATLTPRSLMALERADAVYASGIRAADGSFAIATVTERGEIVDQVALPARAHGIAFSASTGKTVAFARRPGTYAMIFDPWNKSEPIVISSREDRHFYGHGAFSPDGRLLYASENDFDGNRGMIGLYDATDRFTRIGEFETYGIGPHDMTVSDDGRLLIVANGGIETHPDFGRTKLNLGEMQPSLALIDAATGALVEKHVLPAEWAELSTRHVDLDGAGRIWFACQYEGHRKDLPPLVGHFAKGEDLSFIDLPEETTRRLANYVGAIAVNRSEGLVGITSPKGGASVTIDARTGKMLAETSVPDAAGIAPARNGFAVSSYDGDFLSTRSDVAWDQHIVRI | not soluble
21 | MRYIRQLCCVSLLCLSGSAVAANVRLQVEGLSGQLEKNVRAQLSTIESDEVTPDRRFRARVDDAIREGLKALGYYQPTIEFDLRPPPKKGRQVLIAKVTPGVPVLIGGTDVVLRGGARTDKDYLKLLDTRPAIGTVLNQGDYENFKKSLTSIALRKGYFDSEFTKAQLGIALGLHKAFWDIDYNSGERYRFGHVTFEGSQIRDEYLQNLVPFKEGDEYESKDLAELNRRLSATGWFNSVVVAPQFDKARETKVLPLTGVVSPRTENTIETGVGYSTDVGPRVKATWKKPWMNSYGHSLTTSTSISAPEQTLDFSYKMPLLKNPLEQYYLVQGGFKRTDLNDTESDSTTLVASRYWDLSSGWQRAINLRWSLDHFTQGEITNTTMLFYPGVMISRTRSRGGLMPTWGDSQRYSIDYSNTAWGSDVDFSVFQAQNVWIRTLYDRHRFVTRGTLGWIETGDFDKVPPDLRFFAGGDRSIRGYKYKSIAPKYANGDLKGASKLITGSLEYQYNVTGKWWGAVFVDSGEAVSDIRRSDFKTGTGVGVRWESPVGPIKLDFAVPVADKDEHGLQFYIGLGPELLEHHHHHH | not soluble
